System: mouse embryonic fibroblasts (MEFs)
Assay: Cellular uptake of FITC-peptides by ImageXpress high-content microscopy
Settings: MEFs 2×10^4 cells, 0% FBS, dose varied; text 2 hours, legend 4 hr

Substance: BIM BH3_1: unmodified template peptide FITC-BIM BH3_1 (aa 146–166)
- TIFI versus FITC-peptide dose, result in words: linear, dose-responsive increase in TIFI
